Measured values: publication PMC4765788, “Role of a chalcone isomerase-like protein in flavonoid biosynthesis in Arabidopsis thaliana” (Journal of Experimental Botany, 2015)

Target: the molecule itself
Experiment: native gel or EMSA; purified recombinant protein run on a non-denaturing PAGE gel

B1: recombinant TT5 protein (chalcone isomerase), His-tagged (enzyme, Arabidopsis thaliana, UniProt P41088 1-246, looked up)
chain: MSSSNACASPSPFPAVTKLHVDSVTFVPSVKSPASSNPLFLGGAGVRGLDIQGKFVIFTVIGVYLEGNAVPSLSVKWKGKTTEELTESIPFFREIVTGAFEKFIKVTMKLPLTGQQYSEKVTENCVAIWKQLGLYTDCEAKAVEKFLEIFKEETFPPGSSILFALSPTGSLTVAFSKDDSIPETGIAVIENKLLAEAVLESIIGKNGVSPGTRLSVAERLSQLMMKNKDEKEVSDHSVEEKLAKEN
notes: TT5, chalcone isomerase, Arabidopsis thaliana, At3g55120; ORF cloned into pQE-30; pQE-30 usually adds an N-terminal His6 tag (surmised); also called CHI
- stoichiometry N: 4
